The text below walks through data of patent publication US20240042032A1 (TENEOBIO, published 2024).

The test concerns the target T1, human CD19 on CD19+ cells (Raji, Daudi, Ramos, SU-DHL-10, Nalm6) (human, UniProt P15391 20-556).
T1 construct: whole, on cells; also called B-Lymphocyte Surface Antigen B4
T1 sequence (looked up): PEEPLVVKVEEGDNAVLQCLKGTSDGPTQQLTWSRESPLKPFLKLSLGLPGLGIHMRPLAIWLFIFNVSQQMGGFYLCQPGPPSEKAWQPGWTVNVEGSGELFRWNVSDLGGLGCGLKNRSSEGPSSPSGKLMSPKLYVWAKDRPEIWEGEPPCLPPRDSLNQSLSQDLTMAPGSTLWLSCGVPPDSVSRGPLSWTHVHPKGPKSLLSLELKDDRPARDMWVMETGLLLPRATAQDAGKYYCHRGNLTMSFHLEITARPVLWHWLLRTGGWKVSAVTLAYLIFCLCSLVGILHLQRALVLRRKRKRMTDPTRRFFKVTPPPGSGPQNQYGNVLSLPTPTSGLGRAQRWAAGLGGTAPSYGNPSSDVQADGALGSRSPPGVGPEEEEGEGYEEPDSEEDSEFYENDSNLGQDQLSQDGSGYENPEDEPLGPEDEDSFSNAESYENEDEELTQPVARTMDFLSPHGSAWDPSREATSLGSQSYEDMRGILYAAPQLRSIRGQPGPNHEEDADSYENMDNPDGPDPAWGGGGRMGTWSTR
Put plainly: cell-binding assay on CD19+ cells.

B1: anti-CD19 heavy chain-only antibody (UniAb) clone ID 370083 (antibody, V domains shown)
VH: QVQLVESGGGLVKPGGSLRLSCAASGFTFSDYYMSWIRQAPGKGLEWVSYMSSSGSTIYYADSVKGRFTISRDNAKNSLYLQMTSLRAEDTAVYYCARGGIAATGTWGQGTLVTVSS
notes: Heavy chain-only antibody with no light chain, tested as purified UniAb and detected with anti-human IgG; Only the VH is tied to the clone
B1: the binding result was “binds”.

B2: anti-CD19 heavy chain-only antibody (UniAb) clone ID 370034 (antibody, V domains shown)
VH: QVQLVESGGGLVKPGGSLRLSCAASGFTFSDYYMSWIRQAPGKGLEWVSYMSSSGSTIYYADSVKGRFTISRDNAKKSLYLQMNSLRAEDTAVYYCARGGIAAAGTWGQGTLVTVSS
notes: Heavy chain-only antibody with no light chain, tested as purified UniAb and detected with anti-human IgG; Only the VH is tied to the clone; also called HCAb 370034
With B2, the binding result is reported as “binds”.
